According to patent publication US20050042607A1, “Parkin protein as ubiquitin ligase” (priority 2000, published 2005):
Residue numbers refer to the chain shown, from its start. Names and notes keep the numbering of the source. “Also recorded” adds a separate entry of the source.

T1: Ubc3 (Homo sapiens, UniProt P49427)
T1 construct: expressed in transfected cells; host or cells: HEK293
T1 sequence (P49427 1-236): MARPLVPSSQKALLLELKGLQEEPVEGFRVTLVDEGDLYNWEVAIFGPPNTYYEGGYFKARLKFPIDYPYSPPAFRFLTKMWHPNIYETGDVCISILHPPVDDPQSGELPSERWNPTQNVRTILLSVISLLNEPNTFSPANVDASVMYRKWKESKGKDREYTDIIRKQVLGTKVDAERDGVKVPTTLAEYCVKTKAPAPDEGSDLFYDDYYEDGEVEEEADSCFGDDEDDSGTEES

B1: Parkin: Protein of 465 amino acids encoded by parkin, with N-terminal ubiquitin-like domain and C-terminal RING-box; used Myc-labeled (protein, UniProt O60260 1-465, looked up)
E3 ubiquitin-protein ligase …: MIVFVRFNSSHGFPVEVDSDTSIFQLKEVVAKRQGVPADQLRVIFAGKELRNDWTVQNCDLDQQSIVHIVQRPWRKGQEMNATGGDDPRNAAGGCEREPQSLTRVDLSSSVLPGDSVGLAVILHTDSRKDSPPAGSPAGRSIYNSFYVYCKGPCQRVQPGKLRVQCSTCRQATLTLTQGPSCWDDVLIPNRMSGECQSPHCPGTSAEFFFKCGAHPTSDKETSVALHLIATNSRNITCITCTDVRSPVLVFQCNSRHVICLDCFHLYCVTRLNDRQFVHDPQLGYSLPCVAGCPNSLIKELHHFRILGEEQYNRYQQYGAEECVLQMGGVLCPRPGCGAGLLPEPDQRKVTCEGGNGLGCGFAFCRECKEAYHEGECSAVFEASGTTTQAYRVDERAAEQARWEAASKETIKKTTKPCPRCHVPVEKNGGCMHMKCPQPQCRLEWCWNCGCEWNRVCMGDHWFDV
modifications: Myc tag
notes: Protein of 465 amino acids encoded by parkin, with N-terminal ubiquitin-like domain and C-terminal RING-box; used Myc-labeled
B2: Parkin^R42P: Missense Parkin variant from AR-JP patient, No. 42 arginine replaced with proline (ubiquitin-like domain variant) (protein, UniProt O60260 1-465, looked up, variant R42P)
E3 ubiquitin-protein ligase …: B1 E3 ubiquitin-protein ligase … with R42P
B3: Parkin^T240R: Missense Parkin variant from AR-JP patient, No. 240 threonine replaced with arginine (RING1 domain) (protein, UniProt O60260 1-465, looked up, variant T240R)
E3 ubiquitin-protein ligase …: B1 E3 ubiquitin-protein ligase … with T240R

Columns and labels:
UbcH8 = target: T2, UbcH8 (Homo sapiens, UniProt O14933); test: Co-immunoprecipitation of Myc-Parkin with UbcH8 expressed in HEK293 cells; assay type: binding; conditions: 48 hours after transfection, IP with antiMyc antibody
T2 construct: expressed in transfected cells; host or cells: HEK293
T2 sequence (O14933 whole entry): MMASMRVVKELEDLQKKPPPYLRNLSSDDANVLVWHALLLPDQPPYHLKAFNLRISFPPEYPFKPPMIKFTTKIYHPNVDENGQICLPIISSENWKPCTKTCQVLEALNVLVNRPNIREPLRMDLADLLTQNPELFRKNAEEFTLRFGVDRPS
Protocol: (§1) For preparing pcDNA3.1(+)Myc and pcDNA3.1(+)FLAG vectors, oligo DNA encoding N-terminal Myc and FLAG epitopes was ligated at KpnI/BamHI domain of pcDNA3.1(+) (Invitrogen). After the amplification of wild type parkin or N-terminal-deficient variant, Ubc2(HHR6B), UbcH8 and cDNA of ubiquitin with a suitable primer, they were ligated in BamHI domain of the vector. The C-terminal-deficient variant and missense variant of parkin were prepared by introducing a variation into pcDNA3.1(+)Myc-Parkin by using a Quik Change domain specific variation inducing kit (Stratagene) according to a manual. pCAGGS-Ubc3 was already reported [Iwai K. et al., Proc. Natl. Acad. Sci. USA 96, 12436-12441 (1999)].
(§2) pCGN-Ubc4 and other pcDNA3.1(+)FLAG-Ubc were prepared from human liver cDNA library by an ordinary method. Ubc used was obtained from human beings in all the cases. […]
(§3) The following test was conducted to find whether Parkin concerns the ubiquitin pathway or not. To find whether the interaction between Parkin and each of various E2 enzymes occurs or not, Myc-labeled parkin was expressed together with various E2 enzymes labeled with FLAG, HA or His at different domains in HEK293 cells, and the interaction of them was detected by the immunoprecipitation The results are shown in FIG. 1. […]

UbcH7 = target: T3, UbcH7 (Homo sapiens, UniProt P68036); test: Co-immunoprecipitation of Myc-Parkin with FLAG-UbcH7 expressed in HEK293 cells; assay type: binding; conditions: 48 hours after transfection, IP with antiMyc antibody
T3 construct: expressed in transfected cells; host or cells: HEK293
T3 sequence (P68036 whole entry): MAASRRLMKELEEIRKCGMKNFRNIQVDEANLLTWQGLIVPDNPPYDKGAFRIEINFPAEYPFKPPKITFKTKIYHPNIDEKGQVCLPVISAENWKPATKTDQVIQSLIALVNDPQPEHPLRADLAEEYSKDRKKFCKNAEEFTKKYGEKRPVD
Protocol: as §1
(§4) pCGN-Ubc4 and other pcDNA3.1(+)FLAG-Ubc were prepared from human liver cDNA library by an ordinary method. Ubc used was obtained from human beings in all the cases. Human fetal kidney 293 (HEK293) cells and human dopamigenergic neuroblastoma SH-SY5Y cells were cultured in DMEM containing 10% bovine fetal serum, 10 μg/ml streptomycin and 100 U/ml penicillin.
The transfection was carried out by using FuGENE6 transfection reagent according to the producer (Boehringer-Mannheim)'s manual. […]
The following test was conducted to find whether Parkin concerns the ubiquitin pathway or not. To find whether the interaction between Parkin and each of various E2 enzymes occurs or not, Myc-labeled parkin was expressed together with various E2 enzymes labeled with FLAG, HA or His at different domains in HEK293 cells, and the interaction of them was detected by the immunoprecipitation The results are shown in FIG. 1.
Concretely, pcDNA3.1(+)Myc-Parkin ([…]) was transfected in HEK293 cells simultaneously with various expression vectors encoding FLAG-, His- or HA-Ubc in an amount shown in the parentheses in FIG. 1. […] The cell extracts (upper panel in FIG. 1) and immunoprecipitates (middle and lower panels in FIG. 1) were analyzed by the immunoblotting with various antibodies as shown in FIG. 1. […]

HEK293 fetal kidney cell = test: Association of FLAG-ubiquitinated cell protein with Myc-Parkin in HEK293 cells; assay type: cell-based, human; conditions: HEK293 fetal kidney cell extract, same analysis as in SH-SY5Y
Protocol: as §4
(§5) The transfection was carried out by using FuGENE6 transfection reagent according to the producer (Boehringer-Mannheim)'s manual. The cells were treated with MG132 (Cbz-Leu-Leu-Leu-aldehyde) (Peptide Institute, Inc., Osaka, Japan) having a final concentration of 50 μM.
(§6) The immunoprecipitation was conducted with rabbit polyclonal antiMyc antibodies (A-14) (Santa Cruz Biotechnology) as previously reported [Suzuki H. et al., Biochem. Biophys. Res. Commun. 256, 127-132 (1999)]. The immunoblotting was conducted with biotin linked mouse monoclonal antiFLAG(M2) antibody (SIGMA), mouse monoclonal antiMyc antibody (9E10) (Santa Cruz Biotechnology), mouse monoclonal antiHA antibody (HA.11) (Berkeley Antibody Company) or mouse monoclonal antiHis antibody (RGS.His) (QIAGEN). Streptoavidin/horseradish peroxidase complex (Amersham Pharmacia Biotech) was used for detecting biotin-linked antiFLAG(M2) antibody.
(§7) At first, 10 μg of pcDNA3.1(+)Myc-parkin and 10 μg of pcDNA3.1(+)FLAG-ubiquitin vector were simultaneously transfected into SH-SY5Y cells. […]

Ubc2 = target: T4, Ubc2 (Homo sapiens, UniProt P63146); test: Co-immunoprecipitation of Myc-Parkin with Ubc2 expressed in HEK293 cells; assay type: binding; conditions: IP with antiMyc antibody
T4 construct: expressed in transfected cells; host or cells: HEK293
T4 sequence (P63146 whole entry): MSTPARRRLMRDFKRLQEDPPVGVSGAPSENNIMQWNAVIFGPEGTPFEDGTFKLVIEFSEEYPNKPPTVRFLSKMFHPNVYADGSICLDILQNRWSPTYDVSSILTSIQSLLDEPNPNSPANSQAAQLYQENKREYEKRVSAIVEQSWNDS
Protocol: as §1, §2, §3

UbcH5A-C = test: Co-immunoprecipitation of Myc-Parkin with UbcH5A-C expressed in HEK293 cells; assay type: binding, human; conditions: IP with antiMyc antibody
Protocol: as §1, §2, §3

UbcH6 = target: T5, UbcH6 (Homo sapiens, UniProt P51965); test: Co-immunoprecipitation of Myc-Parkin with UbcH6 expressed in HEK293 cells; assay type: binding; conditions: IP with antiMyc antibody
T5 construct: expressed in transfected cells; host or cells: HEK293
T5 sequence (P51965 whole entry): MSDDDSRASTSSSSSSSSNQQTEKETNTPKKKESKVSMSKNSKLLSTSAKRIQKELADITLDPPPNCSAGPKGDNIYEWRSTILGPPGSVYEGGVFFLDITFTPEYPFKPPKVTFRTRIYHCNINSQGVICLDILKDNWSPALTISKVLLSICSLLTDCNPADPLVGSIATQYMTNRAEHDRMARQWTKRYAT
Protocol: as §1, §2, §3

Ubc4 = test: Co-immunoprecipitation of Myc-Parkin with Ubc4 expressed in HEK293 cells; assay type: binding, human; conditions: IP with antiMyc antibody
Protocol: as §1, §2, §3

Ubc3 = target: T1, Ubc3; test: Co-immunoprecipitation of Myc-Parkin with Ubc3 expressed in HEK293 cells; assay type: binding; conditions: IP with antiMyc antibody
Protocol: as §1, §2, §3

[1] = test system: human dopamigenergic neuroblastoma SH-SY5Y cells; test: Association of FLAG-ubiquitinated cell protein with Myc-Parkin in SH-SY5Y cells (antiMyc immunoprecipitation, antiFLAG immunoblotting); assay type: cell-based
Protocol: as §1, §4, §5, §6, §7

[2] = SH-SY5Y cells treated with proteasome inhibitor MG132 (50 μM)

Row | Molecule | association (co-immunoprecipitation) with UbcH8 (UbcH8) | association (co-immunoprecipitation) with UbcH7 (UbcH7) | ubiquitinated protein bands associated with Parkin (HEK293 fetal kidney cell) | association (co-immunoprecipitation) with Ubc2 (Ubc2) | association (co-immunoprecipitation) with UbcH5A-C (UbcH5A-C) | association (co-immunoprecipitation) with UbcH6 (UbcH6) | association (co-immunoprecipitation) with Ubc4 (Ubc4) | association (co-immunoprecipitation) with Ubc3 (Ubc3) | ubiquitinated protein bands associated with Parkin [1, 2] | ubiquitinated protein bands associated with Parkin ([1]; SH-SY5Y cells, no treatment with inhibitor)
1 | B1 | not detected under ordinary conditions; also recorded: UbcH8 immunoprecipitation was weak | immunoprecipitated together with Parkin | no ubiquitinated band linked with Parkin was observed | no detectable linkage | no detectable linkage | no detectable linkage | no detectable linkage | no detectable linkage | ubiquitinated bands including high-molecular ubiquitinated proteins, were detected | no ubiquitinated band was found
2 | B2 |  | could be linked with UbcH7 |  |  |  |  |  |  | substantially completely lost the association with the ubiquitinated protein | 
3 | B3 |  | did not interact with UbcH7 |  |  |  |  |  |  |  | 
